The source of these data is patent US20180326085A1.

The test deals with biotinylated recombinant human c-MET ECD (HGFR extracellular domain) (human) (UniProt P08581). As to the kind of experiment: HGF competition ELISA: HGF on the plate, biotinylated c-MET ECD pre-incubated with the antibody; blocked ligand HGF.

Regarding 224G11 (antibody), the IC50 (read off the curve) was 3 nM.
